Data reported in the supplement of paper PMC9112550, “Optimization of the antimicrobial peptide Bac7 by deep mutational scanning” (BMC Biology, 2022).

These sequences were tested on Escherichia coli TOP10 (assay: shrunken log2 fold change of peptide-encoding DNA abundance (4.5 h post-induction vs induction); higher = less antimicrobial activity (less host growth inhibition)). Conditions: time post-induction: 4.5 h; library: site-saturation at positions 5, 18, 19, 20.
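Also: peptides expressed intracellularly from a pBAD plasmid library in pooled LB shake-flask culture, induced with 0.3% L-arabinose, DNA abundance read by NGS, three biological replicates, DESeq2 with apeglm shrinkage.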

| Sequence | shrunken log2 fold change |
| --- | --- |
| RRIRMRPPRLPRPRPRPCRMPRP | -0.0205 |
| RRIRIRPPRLPRPRPRPNGMPRP | -0.0985 |
| RRIRNRPPRLPRPRPRPACVPRP | 0.0235 |
| RRIRPRPPRLPRPRPRPQYQPRP | -0.263 |
| RRIRVRPPRLPRPRPRPKPNPRP | 0.275 |
| RRIRNRPPRLPRPRPRPWRVPRP | 0.515 |
| RRIRKRPPRLPRPRPRPCPGPRP | -0.251 |
| RRIRFRPPRLPRPRPRPVFMPRP | -0.0805 |
| RRIRLRPPRLPRPRPRPCKFPRP | -0.463 |
| RRIRARPPRLPRPRPRPFNNPRP | -0.688 |
| RRIRDRPPRLPRPRPRPCPFPRP | -0.0587 |
| RRIRKRPPRLPRPRPRPMTIPRP | -0.191 |
| RRIRMRPPRLPRPRPRPYCAPRP | -0.515 |
| RRIRRRPPRLPRPRPRPRMCPRP | 0.17 |
| RRIRKRPPRLPRPRPRPFSQPRP | -0.151 |
| RRIRQRPPRLPRPRPRPKAHPRP | 0.0165 |
| RRIRCRPPRLPRPRPRPRTHPRP | -0.168 |
| RRIRKRPPRLPRPRPRPYKDPRP | -0.213 |
| RRIRERPPRLPRPRPRPMVWPRP | -0.0633 |
| RRIRIRPPRLPRPRPRPVLFPRP | -0.357 |
| RRIRERPPRLPRPRPRPKRVPRP | -0.0417 |
| RRIRWRPPRLPRPRPRPWNFPRP | -0.188 |
| RRIRRRPPRLPRPRPRPMKCPRP | -0.0984 |
| RRIRARPPRLPRPRPRPKCYPRP | 0.00925 |
| RRIRKRPPRLPRPRPRPYLVPRP | -0.634 |

| Sequence | shrunken log2 fold change |
| --- | --- |
| RRIRTRPPRLPRPRPRPGMKPRP | -0.0344 |
| RRIRQRPPRLPRPRPRPCHIPRP | -0.0316 |
| RRIRYRPPRLPRPRPRPGMPPRP | -0.403 |
| RRIRDRPPRLPRPRPRPNWWPRP | 0.22 |
| RRIRGRPPRLPRPRPRPWDRPRP | -0.141 |
| RRIRLRPPRLPRPRPRPMQPPRP | 0.303 |
| RRIRYRPPRLPRPRPRPGRYPRP | -0.912 |
| RRIRYRPPRLPRPRPRPSLGPRP | -0.297 |
| RRIRWRPPRLPRPRPRPLYEPRP | -0.255 |
| RRIRIRPPRLPRPRPRPFIQPRP | -0.551 |
| RRIRMRPPRLPRPRPRPLRFPRP | 0.74 |
| RRIRFRPPRLPRPRPRPAYKPRP | -0.314 |
| RRIRRRPPRLPRPRPRPFHAPRP | 0.201 |
| RRIRARPPRLPRPRPRPGFAPRP | 0.57 |
| RRIRHRPPRLPRPRPRPMWSPRP | -0.209 |
| RRIRCRPPRLPRPRPRPVPVPRP | 0.0927 |
| RRIRGRPPRLPRPRPRPRILPRP | 0.404 |
| RRIRNRPPRLPRPRPRPIYHPRP | -0.526 |
| RRIRYRPPRLPRPRPRPDAWPRP | 0.0522 |
| RRIRARPPRLPRPRPRPLGKPRP | 0.237 |
| RRIRCRPPRLPRPRPRPSWEPRP | -0.0769 |
| RRIRYRPPRLPRPRPRPDKEPRP | -0.478 |
| RRIRERPPRLPRPRPRPVLAPRP | 0.252 |
| RRIRFRPPRLPRPRPRPSDEPRP | -0.308 |
| RRIRMRPPRLPRPRPRPLPKPRP | 1.11 |

| Sequence | shrunken log2 fold change |
| --- | --- |
| RRIRARPPRLPRPRPRPDNSPRP | -0.269 |
| RRIRHRPPRLPRPRPRPGDGPRP | 0.209 |
| RRIRQRPPRLPRPRPRPQRKPRP | -0.058 |
| RRIRARPPRLPRPRPRPTTSPRP | 0.292 |
| RRIRHRPPRLPRPRPRPCTFPRP | -0.456 |
| RRIRWRPPRLPRPRPRPNMEPRP | 0.0936 |
| RRIRARPPRLPRPRPRPVHDPRP | 0.146 |
| RRIRLRPPRLPRPRPRPMMHPRP | 0.0259 |
| RRIRYRPPRLPRPRPRPWWQPRP | -0.00151 |
| RRIRARPPRLPRPRPRPCMNPRP | -0.0756 |
| RRIRSRPPRLPRPRPRPRIYPRP | -0.517 |
| RRIRKRPPRLPRPRPRPCVLPRP | 0.0725 |
| RRIRERPPRLPRPRPRPIIYPRP | -0.412 |
| RRIRARPPRLPRPRPRPVMAPRP | 0.567 |
| RRIRKRPPRLPRPRPRPDGDPRP | 3.21 |
| RRIRERPPRLPRPRPRPCNPPRP | -0.442 |
| RRIRVRPPRLPRPRPRPNLEPRP | 0.0543 |
| RRIRMRPPRLPRPRPRPTMSPRP | -0.148 |
| RRIRNRPPRLPRPRPRPYNLPRP | 0.00765 |
| RRIRERPPRLPRPRPRPPAFPRP | 0.331 |
| RRIRTRPPRLPRPRPRPCYCPRP | -0.76 |
| RRIRDRPPRLPRPRPRPGHIPRP | -0.0814 |
| RRIRWRPPRLPRPRPRPKLCPRP | 0.0167 |
| RRIRMRPPRLPRPRPRPMQRPRP | 0.556 |
| RRIRARPPRLPRPRPRPERNPRP | 0.848 |

| Sequence | shrunken log2 fold change |
| --- | --- |
| RRIRKRPPRLPRPRPRPTAEPRP | 0.079 |
| RRIRPRPPRLPRPRPRPICSPRP | -0.014 |
| RRIRPRPPRLPRPRPRPDWIPRP | -0.444 |
| RRIRYRPPRLPRPRPRPMPMPRP | -0.319 |
| RRIRSRPPRLPRPRPRPYWVPRP | -0.314 |
| RRIRERPPRLPRPRPRPPDMPRP | -0.332 |
| RRIRWRPPRLPRPRPRPGDSPRP | -0.163 |
| RRIRTRPPRLPRPRPRPIILPRP | -0.25 |
| RRIRPRPPRLPRPRPRPKVVPRP | 0.454 |
| RRIRRRPPRLPRPRPRPYSYPRP | -0.0587 |
| RRIRYRPPRLPRPRPRPCYTPRP | -0.5 |
| RRIRIRPPRLPRPRPRPRGAPRP | 0.175 |
| RRIRHRPPRLPRPRPRPDYTPRP | -0.00281 |
| RRIRERPPRLPRPRPRPKTIPRP | -0.232 |
| RRIRNRPPRLPRPRPRPACFPRP | 0.0188 |
| RRIRRRPPRLPRPRPRPTRMPRP | 1.08 |
| RRIRKRPPRLPRPRPRPTPQPRP | 0.896 |
| RRIRERPPRLPRPRPRPCLLPRP | -0.0977 |
| RRIRLRPPRLPRPRPRPVYVPRP | -0.367 |
| RRIRCRPPRLPRPRPRPEMDPRP | 0.0321 |
| RRIRVRPPRLPRPRPRPADNPRP | -0.0365 |
| RRIRKRPPRLPRPRPRPGKAPRP | -0.0571 |
| RRIRTRPPRLPRPRPRPKWPPRP | 1.51 |
| RRIRMRPPRLPRPRPRPTDSPRP | 0.0971 |
| RRIRKRPPRLPRPRPRPPVRPRP | 0.265 |

| Sequence | shrunken log2 fold change |
| --- | --- |
| RRIRFRPPRLPRPRPRPWNPPRP | -0.222 |
| RRIRVRPPRLPRPRPRPYQDPRP | -1.42 |
| RRIRERPPRLPRPRPRPQQWPRP | 0.19 |
| RRIRCRPPRLPRPRPRPFRLPRP | -0.0979 |
| RRIRQRPPRLPRPRPRPHSMPRP | -0.438 |
| RRIRFRPPRLPRPRPRPRVKPRP | -0.154 |
| RRIRERPPRLPRPRPRPYCNPRP | -0.143 |
| RRIRSRPPRLPRPRPRPDDGPRP | 0.00408 |
| RRIRQRPPRLPRPRPRPTAYPRP | 0.14 |
| RRIRLRPPRLPRPRPRPRKQPRP | 0.0587 |
| RRIRKRPPRLPRPRPRPHYMPRP | -0.0279 |
| RRIRWRPPRLPRPRPRPRALPRP | 0.354 |
| RRIRHRPPRLPRPRPRPVEMPRP | -0.0679 |
| RRIRIRPPRLPRPRPRPMPWPRP | 0.306 |
| RRIRQRPPRLPRPRPRPGGDPRP | 0.0869 |
| RRIRMRPPRLPRPRPRPRDPPRP | 0.705 |
| RRIRIRPPRLPRPRPRPEHYPRP | -0.295 |
| RRIRCRPPRLPRPRPRPELFPRP | 0.676 |
| RRIRARPPRLPRPRPRPSLYPRP | 0.0269 |
| RRIRERPPRLPRPRPRPSNCPRP | -0.0637 |
| RRIRSRPPRLPRPRPRPAHGPRP | 0.153 |
| RRIRARPPRLPRPRPRPPIEPRP | 0.188 |
| RRIRWRPPRLPRPRPRPSNLPRP | -0.0676 |
| RRIRNRPPRLPRPRPRPAACPRP | -0.0409 |
| RRIRFRPPRLPRPRPRPPHWPRP | 0.617 |

| Sequence | shrunken log2 fold change |
| --- | --- |
| RRIRSRPPRLPRPRPRPVMSPRP | 0.11 |
| RRIRPRPPRLPRPRPRPLSSPRP | 0.00895 |
| RRIRTRPPRLPRPRPRPLEYPRP | -0.668 |
| RRIRRRPPRLPRPRPRPRQDPRP | 0.274 |
| RRIRTRPPRLPRPRPRPKALPRP | 0.293 |
| RRIRTRPPRLPRPRPRPSLKPRP | -0.359 |
| RRIRFRPPRLPRPRPRPYGEPRP | -0.0721 |
| RRIRSRPPRLPRPRPRPKNAPRP | 0.196 |
| RRIRTRPPRLPRPRPRPACKPRP | 0.172 |
| RRIRVRPPRLPRPRPRPHNMPRP | -0.389 |
| RRIRSRPPRLPRPRPRPIVPPRP | -0.0492 |
| RRIRRRPPRLPRPRPRPAASPRP | 0.38 |
| RRIRQRPPRLPRPRPRPSHHPRP | 0.0184 |
| RRIRHRPPRLPRPRPRPYFDPRP | -0.422 |
| RRIRMRPPRLPRPRPRPYLLPRP | -0.204 |
| RRIRNRPPRLPRPRPRPEPWPRP | 0.0625 |
| RRIRSRPPRLPRPRPRPPGPPRP | 0.64 |
| RRIRRRPPRLPRPRPRPHNPPRP | -0.0181 |
| RRIRDRPPRLPRPRPRPRGKPRP | -0.0455 |
| RRIRHRPPRLPRPRPRPTAVPRP | -0.295 |
| RRIRARPPRLPRPRPRPQGSPRP | 0.4 |
| RRIRTRPPRLPRPRPRPAMLPRP | -0.0605 |
| RRIRSRPPRLPRPRPRPRWRPRP | 0.375 |
| RRIRMRPPRLPRPRPRPIWFPRP | 0.1 |
| RRIRERPPRLPRPRPRPAGSPRP | -0.202 |
